From patent US20040014194

Target: T1, Biotin-KSEVNL*DAEFRK-Fluorescein (SEQ ID NO: 3), peptide substrate derived from the sequence of "Swedish" amyloid protein peptide
T1 chain: KSEVNLDAEFRK

B1: ProBACE (SEQ ID NO: 2), Sf9-derived soluble pro-β-secretase (protein)
chain: TQHGIRLPLRSGLGGAPLGLRLPRETDEEPEEPGRRGSFVEMVDNLRGKSGQGYYVEMTVGSPPQTLNILVDTGSSNFAVGAAPHPFLHRYYQRQLSSTYRDLRKGVYVPYTQGKWEGELGTDLVSIPHGPNVTVRANIAAITESDKFFINGSNWEGILGLAYAEIARPDDSLEPFFDSLVKQTHVPNLFSLQLCGAGFPLNQSEVLASVGGSMIIGGIDHSLYTGSLWYTPIRREWYYEVIIVRVEINGQDLKMDCKEYNYDKSIVDSGTTNLRLPKKVFEAAVKSIKAASSTEKFPDGFWLGEQLVCWQAGTTPWNIFPVISLYLMGEVTNQSFRITILPQQYLRPVEDVATSQDDCYKFAISQSSTGTVMGAVIMEGFYVVFDRARKRIGFAVSACHVHDEFRTAAVEGPFVTLDMEDCGYNIPQTDESTLE
specificity constant (kcat/Km): 1500 ± 100 M⁻¹ s⁻¹

B2: mature BACE (SEQ ID NO: 1), Sf9-derived glycosylated human β-secretase (protein)
chain: ETDEEPEEPGRRGSFVEMVDNLRGKSGQGYYVEMTVGSPPQTLNILVDTGSSNFAVGAAPHPFLHRYYQRQLSSTYRDLRKGVYVPYTQGKWEGELGTDLVSIPHGPNVTVRANIAAITESDKFFINGSNWEGILGLAYAEIARPDDSLEPFFDSLVKQTHVPNLFSLQLCGAGFPLNQSEVLASVGGSMIIGGIDHSLYTGSLWYTPIRREWYYEVIIVRVEINGQDLKMDCKEYNYDKSIVDSGTTNLRLPKKVFEAAVKSIKAASSTEKFPDGFWLGEQLVCWQAGTTPWNIFPVISLYLMGEVTNQSFRITILPQQYLRPVEDVATSQDDCYKFAISQSSTGTVMGAVIMEGFYVVFDRARKRIGFAVSACHVHDEFRTAAVEGPFVTLDMEDCGYNIPQTDESTLE
specificity constant (kcat/Km): 1500 ± 100 M⁻¹ s⁻¹
